Measured values: IntAct's records for PubMed 11711533

B1: Tyrosine-protein phosphatase non-receptor type 12 (Mus musculus), P35831 (parent)
chain: MEQVEILRRFIQRVQAMKSPDHNGEDNFARDFMRLRRLSTKYRTEKIYPTATGEKEENVKKNRYKDILPFDHSRVKLTLKTPSQDSDYINANFIKGVYGPKAYVATQGPLANTVIDFWRMIWEYNVVIIVMACREFEMGRKKCERYWPLYGEDPITFAPFKISCENEQARTDYFIRTLLLEFQNESRRLYQFHYVNWPDHDVPSSFDSILDMISLMRKYQEHEDVPICIHCSAGCGRTGAICAIDYTWNLLKAGKIPEEFNVFNLIQEMRTQRHSAVQTKEQYELVHRAIAQLFEKQLQLYEIHGAQKIADGNEITTGTMVSSIDSEKQDSPPPKPPRTRSCLVEGDAKEEILQPPEPHPVPPILTPSPPSAFPTVTTVWQDSDRYHPKPVLHMASPEQHPADLNRSYDKSADPMGKSESAIEHIDKKLERNLSFEIKKVPLQEGPKSFDGNTLLNRGHAIKIKSASSSVVDRTSKPQELSAGALKVDDVSQNSCADCSAAHSHRAAESSEESQSNSHTPPRPDCLPLDKKGHVTWSLHGPENATPVPDSPDGKSPDNHSQTLKTVSSTPNSTAEEEAHDLTEHHNSSPLLKAPLSFTNPLHSDDSDSDGGSSDGAVTRNKTSISTASATVSPASSAESACTRRVLPMSIARQEVAGTPHSGAEKDADVSEESPPPLPERTPESFVLADMPVRPEWHELPNQEWSEQRESEGLTTSGNEKHDAGGIHTEASADSPPAFSDKKDQITKSPAEVTDIGFGNRCGKPKGPREPPSEWT
B2: Proline-serine-threonine phosphatase-interacting protein 1 (Mus musculus), P97814 (parent)
chain: MMAQLQFRDAFWCRDFTAHTGYEVLLQRLLDGRKMCKDVEELLRQRAQAEERYGKELVQIARKAGGQTEMNSLRTSFDSLKQQTENVGSAHIQLALALREELRSLEEFRERQKEQRKKYEAIMDRVQKSKLSLYKKTMESKKAYDQKCRDADDAEQAFERVSANGHQKQVEKSQNKAKQCKESATEAERVYRQNIEQLERARTEWEQEHRTTCEAFQLQEFDRLTILRNALWVHCNQLSMQCVKDDELYEEVRLTLEGCDVEGDINGFIQSKSTGREPPAPVPYQNYYDREVTPLIGSPSIQPSCGVIKRFSGLLHGSPKTTPSAPAASTETLTPTPERNELVYASIEVQATQGNLNSSAQDYRALYDYTAQNSDELDISAGDILAVILEGEDGWWTVERNGQRGFVPGSYLEKL
partner: B1 chain

Variants of: B1
Details: with ppip1_mouse Pstpip1, P97814

Variant	effect of a mutation on the interaction
C231S	decreasing interaction

Variants of: B2
Details: with ptn12_mouse Ptpn12, P35831

Variant	effect of a mutation on the interaction
Y344F	disrupting interaction
